The source of these data is the supplement of paper PMC7877785.

± gives the uncertainty stated by the source.

This data set is described as follows: self-splicing fitness, log relative to wild type (ln ratio); higher = more splicing; Tetrahymena group I intron in knt gene, E. coli kanamycin selection, DiMSum; sequences stand for … in CUCUCU…GGAGGGAAAAGUUAUCAGGCAUGCACCUGGUAGCUAGUCUUUAAACCAAUAGAUUGCAUCGGUUUAAAAGGCAAGACCGUCAAAUUGCGGGAAAGGGGUCAACAGCCGUUCAGUACCAAGUCUCAGGGGAAACUUUGAGAUGGCCUUGCAAAGGGUAUGGUAAUAAGCUGACGGACAUGGUCCUAACCACGCAGCCAAGUCCUAAGUCAACAGAUCUUCUGUUGAUAUGGAUGCAGUUCACAGACUAAAUGUCGGUCGGGGAAGAUGUAUUCUUCUCAUAAGAUAUAGUCGGACCUCUCCUUAAUGGGAGCUAGCGGAUGAAGUGAUGCAACACUGGAGCCGCUGGGAACUAAUUUGUAUGCGAAAGUAUAUUGAUUAGUUUUGGAGUACUCGUGGUCG
An outline of the steps: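 Colonies from six replicate transformations of E. coli BL21(DE3) were pooled and amplicon-sequenced on an Illumina HiSeq 2500. The library placed an intron with all eight P1ex-region nucleotides randomised inside the knt kanamycin-resistance gene on pET-22b(+), and cells grew overnight at 37°C or 30°C on LB agar with or without 25 μg/mL kanamycin (plus 100 μg/mL carbenicillin, 50 μM IPTG, 0.2% rhamnose). Fitness is the DiMSum error-weighted combination of wild-type-normalised replicate fold changes, kanamycin versus none.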

As to UUCGAGCAAUAUUACGCUUA, the “self-splicing fitness (ln)” value (30 °C) is -2.79 ± 0.21 and the “self-splicing fitness (ln)” value (37 °C) is -1.58 ± 0.18.

Consider UGUCAGCAAUAUUACGCUAG, for which the “self-splicing fitness (ln)” value was -0.41 ± 0.061 (30 °C) and -0.214 ± 0.077 (37 °C). In the same order, the values of UAUGAGCAAUAUUACGAUCG are -1.79 ± 0.12 and -0.568 ± 0.12. In the same order, the values of UUGGAGCAAUAUUACGUAAU are -3.28 ± 0.19 and -2.38 ± 0.31. The like results for ACCCAGCAAUAUUACGCCAC were, in that order, -4.62 ± 0.42 and -1.82 ± 0.31.

GAGUAGCAAUAUUACGUCGU: the “self-splicing fitness (ln)” value is -3.35 ± 0.29 (30 °C) and -0.572 ± 0.2 (37 °C). Take UACCAGCAAUAUUACGCGUU: the “self-splicing fitness (ln)” value (30 °C) is -1.64 ± 0.07 and the “self-splicing fitness (ln)” value (37 °C) was -0.917 ± 0.086.

As for UUUAAGCAAUAUUACGUUCU, the “self-splicing fitness (ln)” value (30 °C) is -1.53 ± 0.11 and the “self-splicing fitness (ln)” value (37 °C) is -0.963 ± 0.11. Regarding CGGCAGCAAUAUUACGCAUG, the “self-splicing fitness (ln)” value runs as follows: (30 °C) -2.27 ± 0.074; (37 °C) -1.05 ± 0.082.

Regarding GAAGAGCAAUAUUACGCUUG, the “self-splicing fitness (ln)” value is, setting by setting: (30 °C) -2.25 ± 0.13; (37 °C) -1.3 ± 0.14. Regarding ACUCAGCAAUAUUACGCGCU, the “self-splicing fitness (ln)” value is -1.41 ± 0.14 (30 °C) and -0.1 ± 0.16 (37 °C). Consider CUGCAGCAAUAUUACGACAU, for which the “self-splicing fitness (ln)” value reads like this: (30 °C) -1.04 ± 0.012; (37 °C) -0.363 ± 0.032. On to AGGUAGCAAUAUUACGACGA, for which the “self-splicing fitness (ln)” value reads like this: (30 °C) -0.363 ± 0.016; (37 °C) -0.00769 ± 0.034.

As for CACUAGCAAUAUUACGCCGC, the “self-splicing fitness (ln)” value (37 °C) was -2.58 ± 0.5. UGGUAGCAAUAUUACGCUUC: the “self-splicing fitness (ln)” value is, setting by setting: (30 °C) -2.63 ± 0.29; (37 °C) -0.643 ± 0.35. In the same order, the values of CUCCAGCAAUAUUACGCGAA are -3.06 ± 0.14 and -1.77 ± 0.16.

With AAUUAGCAAUAUUACGAUGC, the “self-splicing fitness (ln)” value runs as follows: (30 °C) -1.25 ± 0.15; (37 °C) -0.872 ± 0.18. The like results for GUCCAGCAAUAUUACGCCAA were, in that order, -2.63 ± 0.18 and -2.72 ± 0.16. As for GCCCAGCAAUAUUACGCGCA, the “self-splicing fitness (ln)” value is -1.44 ± 0.11 (30 °C) and -0.0956 ± 0.1 (37 °C). In the same order, the values of GAUUAGCAAUAUUACGUAAC are -1.94 ± 0.17 and 0.224 ± 0.14. The like results for AAGUAGCAAUAUUACGUUUG were, in that order, -2.41 ± 0.13 and -1.49 ± 0.13. For CUCUAGCAAUAUUACGAAGG, the “self-splicing fitness (ln)” value reads like this: (30 °C) -2.01 ± 0.38; (37 °C) -1.16 ± 0.32. As to AUUCAGCAAUAUUACGAGGA, the “self-splicing fitness (ln)” value (30 °C) was -2.81 ± 0.32 and the “self-splicing fitness (ln)” value (37 °C) is -1.63 ± 0.16. In the same order, the values of UAUUAGCAAUAUUACGUAAG are -2.05 ± 0.18 and -1.41 ± 0.25. In the same order, the values of CAGAAGCAAUAUUACGCCGU are -3.06 ± 0.21 and -1.94 ± 0.23. The like results for AGUGAGCAAUAUUACGUUAA were, in that order, -2.56 ± 0.31 and -1.57 ± 0.25. For UCAUAGCAAUAUUACGUAAA, the “self-splicing fitness (ln)” value by setting is: (30 °C) -2.76 ± 0.19; (37 °C) -1.99 ± 0.21. In the same order, the values of GUUAAGCAAUAUUACGGCCA are -0.63 ± 0.17 and -0.359 ± 0.23. The like results for UAUGAGCAAUAUUACGAUAG were, in that order, -2.31 ± 0.35 and -0.767 ± 0.38. The like results for GCCUAGCAAUAUUACGCUUG were, in that order, -2.37 ± 0.17 and -1.96 ± 0.26. For the sequence GAGGAGCAAUAUUACGUGCA, the “self-splicing fitness (ln)” value reads like this: (30 °C) -3.41 ± 0.34; (37 °C) -1.31 ± 0.17. Take GGAGAGCAAUAUUACGCUAG: the “self-splicing fitness (ln)” value by setting is: (30 °C) -1.3 ± 0.36; (37 °C) -0.901 ± 0.42. For GCAUAGCAAUAUUACGCCUU, the “self-splicing fitness (ln)” value (37 °C) was -1.42 ± 0.21. Take AACGAGCAAUAUUACGAACC: the “self-splicing fitness (ln)” value (30 °C) is -3.57 ± 0.49 and the “self-splicing fitness (ln)” value (37 °C) is -1.66 ± 0.35. For UAAUAGCAAUAUUACGAAGU, under “37 °C”, the “self-splicing fitness (ln)” value was -1.55 ± 0.47. In the case of CGUGAGCAAUAUUACGGGGC, the “self-splicing fitness (ln)” value (30 °C) is -3.54 ± 0.28 and the “self-splicing fitness (ln)” value (37 °C) is -2.03 ± 0.2. In the same order, the values of UGCAAGCAAUAUUACGCCUC are -1.98 ± 0.46 and -1.23 ± 0.23.

For the sequence AGGGAGCAAUAUUACGGGUC, the “self-splicing fitness (ln)” value is -4.05 ± 0.3 (30 °C) and -3.12 ± 0.22 (37 °C). The like results for GCUAAGCAAUAUUACGCCUG were, in that order, -0.523 ± 0.16 and -1.55 ± 0.22.

Consider CCCGAGCAAUAUUACGGAAA, for which the “self-splicing fitness (ln)” value by setting is: (30 °C) -2.2 ± 0.32; (37 °C) -1.57 ± 0.33. The like results for UAGUAGCAAUAUUACGCAAG were, in that order, -2.78 ± 0.45 and -1.25 ± 0.24. In the same order, the values of CGUCAGCAAUAUUACGCUUC are -3.46 ± 0.36 and -3.11 ± 0.31. In the case of GGUCAGCAAUAUUACGAGGA, the “self-splicing fitness (ln)” value (37 °C) was -1.73 ± 0.36. In the case of AUGGAGCAAUAUUACGCCAG, the “self-splicing fitness (ln)” value (30 °C) is -2.26 ± 0.35. With GCGUAGCAAUAUUACGUUAA, the “self-splicing fitness (ln)” value by setting is: (30 °C) -2.13 ± 0.23; (37 °C) -1.74 ± 0.2.

As for CAGAAGCAAUAUUACGGUAC, the “self-splicing fitness (ln)” value is -4.59 ± 0.28 (30 °C) and -1.72 ± 0.21 (37 °C). Consider GUUUAGCAAUAUUACGAAGC, for which the “self-splicing fitness (ln)” value (37 °C) is -1.3 ± 0.31. CGCCAGCAAUAUUACGCAGU: the “self-splicing fitness (ln)” value (30 °C) is -4.04 ± 0.18 and the “self-splicing fitness (ln)” value (37 °C) is -2.18 ± 0.16.

ACAGAGCAAUAUUACGCUCA: the “self-splicing fitness (ln)” value was -1.29 ± 0.2 (30 °C) and -1.26 ± 0.18 (37 °C). The like results for AGUCAGCAAUAUUACGUUCC were, in that order, -1.13 ± 0.1 and -0.187 ± 0.12. The like results for AUCAAGCAAUAUUACGGUCC were, in that order, -1.55 ± 0.13 and -1.75 ± 0.17.

Regarding ACUUAGCAAUAUUACGCCCC, the “self-splicing fitness (ln)” value (30 °C) was -0.135 ± 0.33.

For CCCCAGCAAUAUUACGGAGU, the “self-splicing fitness (ln)” value reads like this: (30 °C) -4.02 ± 0.15; (37 °C) -2.75 ± 0.15.

GUUAAGCAAUAUUACGUCUG: the “self-splicing fitness (ln)” value by setting is: (30 °C) -1.38 ± 0.098; (37 °C) -1.3 ± 0.13. The like results for UAUCAGCAAUAUUACGCACG were, in that order, -0.349 ± 0.11 and 0.232 ± 0.14.

On to UUCAAGCAAUAUUACGCUGC, for which the “self-splicing fitness (ln)” value runs as follows: (30 °C) -2.71 ± 0.3; (37 °C) -1.92 ± 0.23. The like results for UAUCAGCAAUAUUACGCUCU were, in that order, 0.148 ± 0.12 and 0.416 ± 0.13. The like results for AGUCAGCAAUAUUACGCUGG were, in that order, -3.87 ± 0.23 and -2.71 ± 0.23. In the same order, the values of UUUCAGCAAUAUUACGCCUG are -1.95 ± 0.12 and -1.02 ± 0.11. On to CUAAAGCAAUAUUACGAAAU, for which the “self-splicing fitness (ln)” value reads like this: (30 °C) -3.55 ± 0.28; (37 °C) -2.01 ± 0.46. As to CACAAGCAAUAUUACGAGUA, the “self-splicing fitness (ln)” value runs as follows: (30 °C) -1.9 ± 0.085; (37 °C) -0.487 ± 0.078. The like results for UGGGAGCAAUAUUACGGACU were, in that order, -1.17 ± 0.36 and -2.35 ± 0.46. In the same order, the values of GUCUAGCAAUAUUACGGCAC are -0.276 ± 0.14 and 0.385 ± 0.13.

With CCUUAGCAAUAUUACGUAGU, the “self-splicing fitness (ln)” value reads like this: (30 °C) -2.48 ± 0.095; (37 °C) -0.664 ± 0.098.

Turning to GUUGAGCAAUAUUACGUAAC, the “self-splicing fitness (ln)” value is -2.16 ± 0.42 (30 °C) and -2.88 ± 0.3 (37 °C). The like results for CAGGAGCAAUAUUACGUGCU were, in that order, -2.91 ± 0.13 and -2.23 ± 0.14. In the same order, the values of AUGAAGCAAUAUUACGUAAU are -1.57 ± 0.075 and -0.42 ± 0.094.

For UCCAAGCAAUAUUACGACAA, the “self-splicing fitness (ln)” value (30 °C) was -2.14 ± 0.13 and the “self-splicing fitness (ln)” value (37 °C) was -1.47 ± 0.1. In the same order, the values of UUGUAGCAAUAUUACGACAU are -0.918 ± 0.015 and -0.322 ± 0.034. For the sequence AGAGAGCAAUAUUACGAAAA, the “self-splicing fitness (ln)” value (37 °C) was -1.5 ± 0.5. For CACCAGCAAUAUUACGUUGU, the “self-splicing fitness (ln)” value reads like this: (30 °C) -3.58 ± 0.14; (37 °C) -2.29 ± 0.14. For CGGGAGCAAUAUUACGUCGA, where the note is “37 °C”, the “self-splicing fitness (ln)” value is -1.71 ± 0.48. With GCUGAGCAAUAUUACGACAA, the “self-splicing fitness (ln)” value by setting is: (30 °C) -3.36 ± 0.45; (37 °C) -1.07 ± 0.39.

In the case of ACGCAGCAAUAUUACGGGGC, the “self-splicing fitness (ln)” value was -3.8 ± 0.24 (30 °C) and -3.15 ± 0.28 (37 °C). As for CACCAGCAAUAUUACGGUUC, the “self-splicing fitness (ln)” value is, setting by setting: (30 °C) -2.02 ± 0.065; (37 °C) -1.25 ± 0.085. Take UGUUAGCAAUAUUACGGUCU: the “self-splicing fitness (ln)” value is, setting by setting: (30 °C) -1.33 ± 0.09; (37 °C) -0.963 ± 0.1.

UGUAAGCAAUAUUACGCCCU: the “self-splicing fitness (ln)” value (30 °C) is -0.237 ± 0.19 and the “self-splicing fitness (ln)” value (37 °C) is -0.575 ± 0.24. In the same order, the values of UAGCAGCAAUAUUACGUCCU are -1.1 ± 0.068 and -0.435 ± 0.087.
